Experimental data: patent US20120283184A1 (published 2012)
Changes are numbered by the printed parent chain.

B1: 2′Del E3 PR4 (designed binder)
chain: EVVAATPTSLLISWRHPHFPTRYYRITYGETGGNSPVQEFTVPLQPPTATISGLKPGVDYTITVYAVTLGPYEHELLTPISINYRT
B2: 3′A7 PR4 (designed binder)
chain: B1 chain with G70S, P71D, Y72S, E73G, E75A, L77F
B3: 3′B11 PR4 (designed binder)
chain: B1 chain with L69E, G70T, P71W, Y72N, E73D, L76I, L77R
B4: 2′DelB7 PR4 (designed binder)
chain: B1 chain with L69V, P71Y, Y72N, E73N, H74R
B5: 3C7 PR3 (designed binder)
chain: B1 chain with L69R, P71L, Y72N, E73D, H74G
B6: 3′B8 PR4 (designed binder)
chain: B1 chain with P71Y, Y72H, E73D, E75A, L77F
B7: 2′DelG5 PR4 (designed binder)
chain: B1 chain with L69V, P71Q, Y72N, E73N
B8: 3′A9 PR4 (designed binder)
chain: B1 chain with G70A, P71H, Y72N, E73D, H74R
B9: 2′Del F1 PR4 (designed binder)
chain: B1 chain with L69R, G70D, P71Q
B10: 3B5 PR3 (designed binder)
chain: B1 chain with L69F, P71Q, Y72N, E73G, E75A
B11: 3′C12 PR4 (designed binder)
chain: B1 chain with L69I, Y72N, E73N
B12: 3D12 PR3 (designed binder)
chain: B1 chain with P71Q, Y72N, E73D, H74R, E75Q, T78V
B13: 3′A6 PR4 (designed binder)
chain: B1 chain with G70A, P71Q, Y72N, E73G
B14: 3F8 PR3 (designed binder)
chain: B1 chain with L69V, G70A, P71Q, Y72N, E73G, L77K
B15: 2′Del G11 PR4 (designed binder)
chain: B1 chain with L69G, P71Q, Y72M, E73N, H74R, E75V, L77M
B16: 3′B4 PR4 (designed binder)
chain: B1 chain with L69V, G70A, P71W, Y72N, E73G, L77M
B17: 3′D2 PR4 (designed binder)
chain: B1 chain with L69V, G70E, P71S, Y72N, E73G, E75A, L77F, T78V
B18: 2′DelA5 PR4 (designed binder)
chain: B1 chain with L69W, G70N, P71Q, Y72N, E73G, H74Q, L77F
B19: 2′Del E6 PR4 (designed binder)
chain: B1 chain with L69M, P71K, Y72N, E73G
B20: 3C9 PR3 (designed binder)
chain: B1 chain with G70V, P71R, Y72N, E73D
B21: 3B4 PR3 (designed binder)
chain: B1 chain with L69V, P71Q, Y72N
B22: 2′Del H6 PR4 (designed binder)
chain: B1 chain with L69T, P71H, Y72H, E73D, L77I, T78I
B23: 2′Del F11 PR4 (designed binder)
chain: B1 chain with L69M, P71Q, Y72N, E73D, H74K, L77I
B24: 2′DelC7 PR4 (designed binder)
chain: B1 chain with L69W, G70D, P71Q, Y72N, E73G, E75V
B25: 3′B1 PR4 (designed binder)
chain: B1 chain with L69E, G70A, P71R, Y72N, E73G, H74R
B26: 2′Del F6 PR4 (designed binder)
chain: B1 chain with P71W, Y72N, E73D, L77Y, T78I
B27: 3A2 PR3 (designed binder)
chain: B1 chain with L69W, G70S, P71Q, Y72N, E73N, H74R, L77F
B28: 2′Del F5 PR4 (designed binder)
chain: B1 chain with G70V, P71H, Y72N, E73D, H74R
B29: 2′Del H5 PR4 (designed binder)
chain: B1 chain with P71K, Y72D, E73V, H74R
B30: 3′C5 PR4 (designed binder)
chain: B1 chain with L69D, G70A, P71M, E73G, H74R, L77M
B31: 3′C8 PR4 (designed binder)
chain: B1 chain with L69E, P71L, Y72N, E73D, L77M, T78I
B32: 3′A8 PR4 (designed binder)
chain: B1 chain with L69V, G70A, P71W, Y72D, E73D
B33: 3C3 PR3 (designed binder)
chain: B1 chain with L69M, G70E, P71Q, Y72N, E73G, L77F
B34: 2′Del E5 PR4 (designed binder)
chain: B1 chain with L69E, P71L, Y72N, E73D, L77I, T78I
B35: 2′DelE4 PR4 (designed binder)
chain: B1 chain with L69V, G70H, P71W, Y72N, E73G, L77M
B36: 2′DelH4 PR4 (designed binder)
chain: B1 chain with L69V, Y72N, H74R, E75M, L77M
B37: 3′C3 PR4 (designed binder)
chain: B1 chain with L69M, G70A, P71Q, Y72N, E73G, E75A, L77F
B38: 3′D3 PR4 (designed binder)
chain: B1 chain with L69P, Y72G, E73D, H74R, L77I
B39: 3A3 PR3 (designed binder)
chain: B1 chain with G70A, P71Y, Y72N, E73G, H74R, L76I, L77I
B40: 3′B2 PR4 (designed binder)
chain: B1 chain with L69V, P71R, Y72N, E73D, H74R
B41: 2′DelH9 PR4 (designed binder)
chain: B1 chain with L69V, P71W, Y72S, E73G, L77F, T78V
B42: 2′Del H12 PR4 (designed binder)
chain: B1 chain with L69A, P71G, Y72N, E73G
B43: 3′B10 PR4 (designed binder)
chain: B1 chain with G70A, P71Q, Y72T, E73G, H74R
B44: 3F10 PR3 (designed binder)
chain: B1 chain with G70A, P71Q, Y72D, E73D
B45: 2′DelC3 PR4 (designed binder)
chain: B1 chain with L69W, G70A, P71Q, Y72N, E73G, H74R
B46: 3′B12 PR4 (designed binder)
chain: B1 chain with L69V, G70A, P71H, Y72E, E73N, H74R
B47: 2′Del F8 PR4 (designed binder)
chain: B1 chain with L69A, Y72G, E73A
B48: 2′Del G9 PR4 (designed binder)
chain: B1 chain with L69V, G70E, P71Q, Y72N, E73G, H74R, L77I, T78I
B49: 3G2 PR3 (designed binder)
chain: B1 chain with L69F, Y72S, E73D, E75V
B50: 2′Del F7 PR4 (designed binder)
chain: B1 chain with P71L, Y72R, E73D, H74R, L77F, T78V

Target: T1, human vascular endothelial growth factor receptor-2 Fc chimera (KDR-Fc) (human, UniProt P35968 20-764)
T1 construct: range 1-764; also called human VEGFR-2; not shown: human IgG1 Fc
Assay: radioactive equilibrium binding, 1 nM KDR-Fc, % of input
Protocol: To prepare ³⁵S-labeled binding proteins for analysis, mRNA was prepared as described above for RNA-protein fusion production but the linker ligation step was omitted. The mRNA was expressed using rabbit reticulocyte lysate translation kit (Ambion) in the presence of ³⁵S-labeled Met at 30° C. for 1 hour. Expressed protein was purified on M2-agarose Flag beads (Sigma) as described above. This procedure produced the encoded protein without the nucleic acid tail. In a direct binding assay, VEGF-R2-Fc fusions in concentrations ranging from 0 to 200 nM were added to a constant concentration of the purified protein (0.2 or 0.5 nM) and incubated at 30° C. for 1 hour in buffer B. The receptor-binder complexes were captured using Protein A magnetic beads for another 10 minutes at room temperature using a Kingfisher™ The beads were washed with six reaction volumes of buffer B. The protein was eluted from the beads with 100 μL of 0.1 M KOH. 50 μL of the reaction mixture and elution were dried onto a LumaPlate-96 (Packard) and the amount of ³⁵S on the plate was measured using a TopCount NXT instrument (Packard). The amount of fibronectin-based scaffold protein bound to the target was estimated as a percent of radioactivity eluted from Protein A magnetic beads compare to radioactivity in the reaction mixture. Nonspecific binding of fibronectin-based scaffold proteins to the beads was determined by measuring binding in the absence of KDR-Fc and represented less than 1-2% of the input. Specific binding was obtained through subtraction of nonspecific binding from total binding. Data was analyzed using the GraphPad Prizm software (GraphPad Software, Inc, San Diego, Calif.), fitted using a one site, non-linear binding equation.

T1 sequence (P35968 20-764 limits assumed, change not shown, form in doubt): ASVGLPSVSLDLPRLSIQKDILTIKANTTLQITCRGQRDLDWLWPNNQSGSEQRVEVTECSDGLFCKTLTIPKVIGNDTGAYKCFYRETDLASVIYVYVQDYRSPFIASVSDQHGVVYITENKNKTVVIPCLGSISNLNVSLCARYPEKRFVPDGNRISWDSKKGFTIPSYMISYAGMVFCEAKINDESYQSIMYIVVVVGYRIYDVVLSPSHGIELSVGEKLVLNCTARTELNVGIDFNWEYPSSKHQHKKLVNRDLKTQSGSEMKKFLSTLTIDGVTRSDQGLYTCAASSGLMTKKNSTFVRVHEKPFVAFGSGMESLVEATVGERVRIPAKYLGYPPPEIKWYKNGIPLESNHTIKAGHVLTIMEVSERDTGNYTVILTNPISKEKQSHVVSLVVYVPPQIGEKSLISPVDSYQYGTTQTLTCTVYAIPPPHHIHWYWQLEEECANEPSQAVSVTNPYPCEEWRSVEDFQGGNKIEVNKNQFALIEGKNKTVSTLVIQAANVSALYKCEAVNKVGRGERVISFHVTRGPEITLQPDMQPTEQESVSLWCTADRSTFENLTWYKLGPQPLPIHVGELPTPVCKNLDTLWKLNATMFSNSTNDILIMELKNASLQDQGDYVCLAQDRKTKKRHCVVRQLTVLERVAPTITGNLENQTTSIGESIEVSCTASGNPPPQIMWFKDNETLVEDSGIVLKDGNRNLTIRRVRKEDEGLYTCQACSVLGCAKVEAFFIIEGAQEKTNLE

Binder	Binding to 1 nM KDR, % [%]
B1	33
B2	34
B3	23
B4	32
B5	20
B6	14
B7	19
B8	25
B9	20
B10	20
B11	33
B12	24
B13	19
B14	17
B15	22
B16	38
B17	19
B18	20
B19	43
B20	16
B21	17
B22	28
B23	27
B24	19
B25	25

Binder	Binding to 1 nM KDR, % [%]
B26	22
B27	23
B28	22
B29	34
B30	27
B31	19
B32	27
B33	17
B34	19
B35	34
B36	30
B37	32
B38	42
B39	23
B40	29
B41	20
B42	24
B43	21
B44	16
B45	29
B46	28
B47	42
B48	33
B49	20
B50	38
